T1: human GIP receptor (human), P48546
T1 chain: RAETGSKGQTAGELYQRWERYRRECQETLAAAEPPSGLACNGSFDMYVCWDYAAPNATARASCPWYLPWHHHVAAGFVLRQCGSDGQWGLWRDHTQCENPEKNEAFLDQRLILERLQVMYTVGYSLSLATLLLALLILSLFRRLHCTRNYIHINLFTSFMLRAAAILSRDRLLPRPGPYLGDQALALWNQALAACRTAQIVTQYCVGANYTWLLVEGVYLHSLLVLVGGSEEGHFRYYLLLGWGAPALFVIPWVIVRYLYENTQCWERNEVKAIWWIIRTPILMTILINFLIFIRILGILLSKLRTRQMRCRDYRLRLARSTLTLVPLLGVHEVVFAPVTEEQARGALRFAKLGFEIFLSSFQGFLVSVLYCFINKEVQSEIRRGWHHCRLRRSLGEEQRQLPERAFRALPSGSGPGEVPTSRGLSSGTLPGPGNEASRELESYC


Molecular target: T1, human GIP receptor (human), P48546
Test: 125I-GIP displacement, HEK-GIPR membranes

Row | Binder | % Inh 10 nM [%] | IC50 [nM]
1 | HAEGTFISDYSIAMDKIHQQDFVNWLLAQKPKKIRYS (modifications not checked) [0601GIP4838] | 34.3 | 
2 | YAEGTFISDYSIAMDKIHQQDFVNWLLAQKPKNIRYS (modifications not checked) [0601GIP4852] | 90 | 
3 | YAEGTFISDYSIAMDKIHQQDFVNQLLAQKPKKIRYS (modifications not checked) [0601GIP4845] | 69.5 | 
4 | YAEGTFISDYSIAMDKIHQQDFVNWLLAQKPNKIRYS (modifications not checked) [0601GIP4851] | 87 | 
5 | YAEGTFISDYSIAMDKIHQQDFVNWLLAQKPQKIRYS (modifications not checked) [0601GIP4853] | 91 | 

Now from value to binder:

Row | % Inh 10 nM [%] | IC50 [nM] | Binder
6 | 83.7 |  | YAEGTFISDYSIAMDKIHQQDFVNWLLAQKPKKARYS (modifications not checked) [0601GIP4856]
7 | 93.5 |  | YAEGTFISDYSIAMDKIHQQDFVNWLLAQKPKQIRYS (modifications not checked) [0601GIP4854]
8 | 96.3 |  | YAEGTFISDYSIAMDKIHQQDFVNWLLAQKPKKQRYS (modifications not checked) [0601GIP4914]
9 | 85.6 |  | YAEGTFISDYSIAMDKIHQQDFVQWLLAQKPKKIRYS (modifications not checked) [0601GIP4865 (row r89, Gln24)]
10 | 78.8 | 0.72 | YAEGTFISDYSIAMDKIHQQDFVNWLLAQKPQQIRYS (modifications not checked) [0601GIP4855]
11 | 92.1 |  | YAEGTFISDYSIAMDKIHQQDFVNWLLAQKPKKIQYS (modifications not checked) [0601GIP4913]
12 | 101 |  | YAEGTFISDYSIALDKIAQQEFVNWLLAQKPSSGAPPKSK (modifications not checked) [0601GIP5097]
13 | 97 |  | YAEGTFISDYSIALEKIRQQEFVNWLLAQKPSSGAPPNSK (modifications not checked) [0601GIP5098]

From patent publication US20130137631A1
